Values belong to the substance of their own block, whether it stands above or below them.
Tests used:
[1] = biological target: Halo7-GluA2 (GluA2 tagged with Halo7 at its N-terminus, pcDNA3.1B) (UniProt P23819); assay: single-molecule fluorescence tracking (TIRF), colocalization durations, simultaneous two colours; living HEK293 cells, plasma membrane, ATTO594 on ACP tags and rhodamine110 on Halo7 tags, colocalization = within 240 nm; lifetimes corrected for photobleaching; 37 °C (ACP-TM with Halo7-TM at 22 °C)
[2] = biological target: Halo7-GluA1 (GluA1 tagged with Halo7 at its N-terminus, pcDNA3.1B) (mouse); assay: as above
Target sequence in this assay (P23818 19-907): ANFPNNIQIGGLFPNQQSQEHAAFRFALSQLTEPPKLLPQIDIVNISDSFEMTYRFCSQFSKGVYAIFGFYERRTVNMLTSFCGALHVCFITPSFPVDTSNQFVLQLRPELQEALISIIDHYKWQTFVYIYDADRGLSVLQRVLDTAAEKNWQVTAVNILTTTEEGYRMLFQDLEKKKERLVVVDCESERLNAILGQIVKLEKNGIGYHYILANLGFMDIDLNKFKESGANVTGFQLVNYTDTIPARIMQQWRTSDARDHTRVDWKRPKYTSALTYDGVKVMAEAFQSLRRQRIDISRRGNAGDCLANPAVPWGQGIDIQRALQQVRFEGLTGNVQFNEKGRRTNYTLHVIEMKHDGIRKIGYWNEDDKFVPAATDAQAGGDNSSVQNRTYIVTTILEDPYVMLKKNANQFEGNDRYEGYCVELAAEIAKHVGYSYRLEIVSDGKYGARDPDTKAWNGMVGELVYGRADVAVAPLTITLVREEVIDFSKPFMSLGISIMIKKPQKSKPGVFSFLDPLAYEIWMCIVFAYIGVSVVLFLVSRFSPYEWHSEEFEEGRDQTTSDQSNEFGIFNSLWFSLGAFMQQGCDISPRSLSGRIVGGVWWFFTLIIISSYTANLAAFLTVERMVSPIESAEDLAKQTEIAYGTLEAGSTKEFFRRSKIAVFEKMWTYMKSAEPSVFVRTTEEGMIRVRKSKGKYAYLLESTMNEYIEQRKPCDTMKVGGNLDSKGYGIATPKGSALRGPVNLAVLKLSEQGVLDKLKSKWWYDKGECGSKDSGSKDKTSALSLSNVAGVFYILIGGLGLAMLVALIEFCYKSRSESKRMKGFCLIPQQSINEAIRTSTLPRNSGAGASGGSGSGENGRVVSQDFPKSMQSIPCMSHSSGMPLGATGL

[3] = biological target: ACP-GluA1 (GluA1 tagged with the acyl carrier protein at its N-terminus) (mouse); assay: single-molecule fluorescence tracking (TIRF), colocalization durations, single colour; living HEK293 cells, plasma membrane, 33 ms per frame, colocalization = two spots within 240 nm; duration histograms fitted with a single exponential, lifetimes corrected for photobleaching; 37 °C (monomer references ACP-TM and Halo7-TM at 22 °C); GluA1 and GluA2 homodimers also with TARP2-mGFP overexpression (lifetimes not significantly altered)
[4] = biological target: ACP-GluA1ΔNTD (ACP-GluA1 with the N-terminal domain deleted) (mouse); assay: single-molecule fluorescence imaging (TIRF), distribution of spot signal intensities; living HEK293 cells, plasma membrane, various number densities of expressed molecules; intensity histograms of the initial ten frames fitted with the sum of four (references: two) lognormal functions for monomers, dimers, trimers, tetramers; incidental colocalizations not told apart from true assemblies; also with 0.1 mM AMPA or 10 mM L-glutamate (fractions not altered)
[5] = biological target: ACP-GluA1ΔNTD (ACP-GluA1 with the N-terminal domain deleted) (mouse); assay: single-molecule fluorescence tracking (TIRF), colocalization durations, single colour; living HEK293 cells, plasma membrane, 33 ms per frame, colocalization = two spots within 240 nm; duration histograms fitted with a single exponential, lifetimes corrected for photobleaching; 37 °C (monomer references ACP-TM and Halo7-TM at 22 °C); GluA1 and GluA2 homodimers also with TARP2-mGFP overexpression (lifetimes not significantly altered)
[6] = biological target: Halo7-GluA1 (GluA1 tagged with Halo7 at its N-terminus, pcDNA3.1B) (mouse); assay: as above

Sequence of ACP-GluA1 (GluA1 tagged with the acyl carrier protein at its N-terminus) (receptor) (P23818 19-907): as above
Sequence of ACP-GluA1ΔNTD (ACP-GluA1 with the N-terminal domain deleted) (domain or fragment) (P23818 378-907, stated change not applied): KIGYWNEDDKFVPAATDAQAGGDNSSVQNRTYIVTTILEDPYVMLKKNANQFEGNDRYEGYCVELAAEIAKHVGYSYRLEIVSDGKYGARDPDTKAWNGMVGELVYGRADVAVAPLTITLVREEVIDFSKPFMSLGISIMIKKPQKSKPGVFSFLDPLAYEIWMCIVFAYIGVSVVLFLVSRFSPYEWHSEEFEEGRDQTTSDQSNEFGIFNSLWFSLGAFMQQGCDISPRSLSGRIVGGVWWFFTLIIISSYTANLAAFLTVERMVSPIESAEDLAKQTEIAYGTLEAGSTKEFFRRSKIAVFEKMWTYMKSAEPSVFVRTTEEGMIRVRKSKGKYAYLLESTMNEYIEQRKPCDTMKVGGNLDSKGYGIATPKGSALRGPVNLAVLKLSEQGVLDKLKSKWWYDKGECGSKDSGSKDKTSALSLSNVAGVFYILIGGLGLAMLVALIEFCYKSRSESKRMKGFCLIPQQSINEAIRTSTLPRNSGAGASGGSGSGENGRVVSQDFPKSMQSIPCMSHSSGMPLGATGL
Sequence of Halo7-GluA2 (GluA2 tagged with Halo7 at its N-terminus, pcDNA3.1B) (P23819 25-883): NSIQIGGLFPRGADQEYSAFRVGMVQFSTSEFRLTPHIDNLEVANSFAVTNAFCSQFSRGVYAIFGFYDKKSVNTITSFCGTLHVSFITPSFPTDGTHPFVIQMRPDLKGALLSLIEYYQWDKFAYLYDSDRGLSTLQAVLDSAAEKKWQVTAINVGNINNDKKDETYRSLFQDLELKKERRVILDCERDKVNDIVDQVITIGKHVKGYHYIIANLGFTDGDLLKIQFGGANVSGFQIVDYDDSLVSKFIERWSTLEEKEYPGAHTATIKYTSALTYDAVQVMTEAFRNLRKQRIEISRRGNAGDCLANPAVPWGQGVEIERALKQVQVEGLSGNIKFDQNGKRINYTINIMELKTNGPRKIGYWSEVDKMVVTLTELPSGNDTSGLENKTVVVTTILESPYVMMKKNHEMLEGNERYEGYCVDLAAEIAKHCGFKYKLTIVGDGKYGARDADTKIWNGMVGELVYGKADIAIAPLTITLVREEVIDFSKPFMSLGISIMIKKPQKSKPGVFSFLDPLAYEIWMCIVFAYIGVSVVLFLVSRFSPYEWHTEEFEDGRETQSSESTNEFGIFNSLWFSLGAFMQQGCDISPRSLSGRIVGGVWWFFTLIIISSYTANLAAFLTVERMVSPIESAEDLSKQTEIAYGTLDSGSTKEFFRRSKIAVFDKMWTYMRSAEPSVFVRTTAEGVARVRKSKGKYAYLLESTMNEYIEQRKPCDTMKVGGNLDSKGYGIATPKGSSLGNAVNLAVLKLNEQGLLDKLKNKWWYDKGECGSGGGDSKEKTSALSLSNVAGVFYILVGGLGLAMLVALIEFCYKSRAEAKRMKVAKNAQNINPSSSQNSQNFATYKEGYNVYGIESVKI
Sequence of Halo7-GluA1 (GluA1 tagged with Halo7 at its N-terminus, pcDNA3.1B) (receptor) (P23818 19-907): as the sequence (P23818 19-907) above

colocalization lifetime, GluA1/A2 heterodimer (average of the two tag combinations) [1]: 334 ms
colocalization lifetime, GluA1/A2 heterotetramer (average of the two tag combinations) [1]: 208 ms
exponential lifetime, GluA1/A2 heterodimer [1]: 335 ms
colocalization lifetime, homodimer [2]: 177 ms
colocalization lifetime, homodimer [3]: 164 ms
colocalization lifetime, homotetramer [3]: 98 ms
colocalization lifetime, homotrimer [3]: 117 ms
Substance: ACP-GluA1 (GluA1 tagged with the acyl carrier protein at its N-terminus) (receptor)

colocalization lifetime, homodimer [5]: 100 ms
colocalization lifetime, homotetramer [5]: 41 ms
Substance: ACP-GluA1ΔNTD (ACP-GluA1 with the N-terminal domain deleted) (domain or fragment)
tetramer fraction, fold smaller than that of full-length GluA1 (at 1–1.2 copies μm^−2) [4]: 3 to 4 fold

colocalization lifetime, homodimer [6]: 164 ms
Substance: Halo7-GluA1 (GluA1 tagged with Halo7 at its N-terminus, pcDNA3.1B) (receptor)
